Experimental data taken from US20150344570A1 (published 2015).

T1: FcγRIIb extracellular domain with C-terminal His tag (human, UniProt P31994 43-217)
T1 construct: extracellular domain; also called 2b; FcgRIIb; not shown: His tag at the C terminus
T1 sequence (looked up): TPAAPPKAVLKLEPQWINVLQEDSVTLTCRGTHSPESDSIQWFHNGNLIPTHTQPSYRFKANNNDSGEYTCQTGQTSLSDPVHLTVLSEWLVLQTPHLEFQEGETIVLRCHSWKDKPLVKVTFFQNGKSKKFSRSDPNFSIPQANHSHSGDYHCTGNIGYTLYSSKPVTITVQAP

T2: FcγRIIb extracellular domain with C-terminal His tag (human, UniProt P31994 43-217)
T2 construct: extracellular domain; also called FcgRIIb; 2b; not shown: His tag attached to the C terminus
T2 sequence (looked up): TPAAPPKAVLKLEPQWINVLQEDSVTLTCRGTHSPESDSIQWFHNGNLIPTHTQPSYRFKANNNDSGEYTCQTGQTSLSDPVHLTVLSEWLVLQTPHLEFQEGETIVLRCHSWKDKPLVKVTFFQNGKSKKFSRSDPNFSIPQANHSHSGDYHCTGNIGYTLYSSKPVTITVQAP


Assays:
[1] = biological target: T3, FcγRIIIa extracellular domain with C-terminal His tag (human, UniProt P08637 17-208); assay: SPR (Biacore), relative to GpH7-A5/GpH7-B3/GpL16-k0 = 100
T3 construct: extracellular domain; also called 3a; FcgRIIIa; not shown: His tag at the C terminus
T3 sequence (P08637 17-208): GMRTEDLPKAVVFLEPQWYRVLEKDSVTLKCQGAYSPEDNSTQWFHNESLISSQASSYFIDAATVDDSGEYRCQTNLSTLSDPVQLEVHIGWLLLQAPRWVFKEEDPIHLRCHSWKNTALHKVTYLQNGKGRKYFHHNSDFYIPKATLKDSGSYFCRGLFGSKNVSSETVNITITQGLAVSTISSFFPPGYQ

[2] = biological target: T1, FcγRIIb extracellular domain with …; assay: as above
[3] = biological target: T3, FcγRIIIa extracellular domain with …; assay: SPR (Biacore); ratio of He/Con_3a (FcγRIIIa) to He/Con_2b (FcγRIIb)
[4] = biological target: T2, FcγRIIb extracellular domain with …; assay: SPR (Biacore), antibody captured on antigen peptide chip, FcγR as analyte; relative binding
Description: (§1) The heterodimerized antibodies He Abs in which one of the H chains was introduced with an alteration were assayed for their binding activities to each activating FcγR and inhibitory FcγR according to the method described in Example 4. […] The activating FcγRs in FIGS. 26, 27, 28, and 29 are FcγRIa, FcγRIIa (R), FcγRIIa (H), and FcγRIIIa, respectively.
(§2) Analysis of interaction between objective antibody and the FcγR was carried out using Biacore T100 (GE Healthcare). HBS-EP+ (GE Healthcare) was used as the running buffer, and the measurement temperature was set to 25° C. Chips produced by immobilizing the antigen peptide by the amine coupling method to a Series S Sencor Chip CM5 (GE Healthcare), or alternatively, chips produced by allowing preliminarily biotinylated antigen peptides to interact with and immobilize onto a Series S Sensor Chip SA (certified) (GE Healthcare) were used. Antibodies of interest were captured onto an antigen peptide-immobilized chip, and allowed to interact to each FcγR diluted with running buffer. To regenerate and repeatedly use the chip, the antibodies captured on the chip were washed off by reacting 10 mM glycine-HCl, pH 1.5.

[5] = biological target: T4, FcγRIIIa extracellular domain with C-terminal His tag (human, UniProt P08637 17-208); assay: as above
T4 construct: extracellular domain; also called FcgRIIIa; 3a; not shown: His tag attached to the C terminus
Description: as §1, §2
T4 sequence (P08637 17-208): as above

| He/Con_3a [1] | He/Con_2b [2] | He_3a/2b (IIIa/IIb) [3] | He/Con_2b [4] | He/Con_3a [5] | Binder |
| --- | --- | --- | --- | --- | --- |
| 79.1 % (control = 100) | 118 % (control = 100) | 0.67 | – | – | GpH7-A5/GpH7-B3 variant L235_04F/GpL16-k0 (antibody, human IgG1, kappa, IgG1, anti-glypican-3; also called He Ab) heavy 1: not shown heavy 2: not shown light: DIVMTQSPLSLPVTPGEPASISCQASESLVHSNRNTYLHWYLQKPGQSPQLLIYKVSNRFSGVPDRFSGSGSGTDFTLKISRVEAEDVGVYYCSQNTHVPPTFGQGTKVEIERTVAAPSVFIFPPSDEQLKSGTASVVCLLNNFYPREAKVQWKVDNALQSGNSQESVTEQDSKDSTYSLSSTLTLSKADYEKHKVYACEVTHQGLSSPVTKSFNRGEC |
| – | – | – | 119 % of GpH7-A5/GpH7-B3/GpL16-k0 (=100) | 73.2 % of GpH7-A5/GpH7-B3/GpL16-k0 (=100) | GpH7-A5/GpH7-B3 variant P331_03V/GpL16-k0 (He Ab) (antibody, human IgG1, kappa, Heterodimerized antibody with the alteration in one H chain only) heavy 1: not shown heavy 2: not shown light: DIVMTQSPLSLPVTPGEPASISCQASESLVHSNRNTYLHWYLQKPGQSPQLLIYKVSNRFSGVPDRFSGSGSGTDFTLKISRVEAEDVGVYYCSQNTHVPPTFGQGTKVEIERTVAAPSVFIFPPSDEQLKSGTASVVCLLNNFYPREAKVQWKVDNALQSGNSQESVTEQDSKDSTYSLSSTLTLSKADYEKHKVYACEVTHQGLSSPVTKSFNRGEC |
| 31.4 % (control = 100) | 57.4 % (control = 100) | 0.55 | – | – | GpH7-A5/GpH7-B3 variant P238_02A/GpL16-k0 (antibody, human IgG1, kappa, IgG1, anti-glypican-3; also called He Ab) heavy 1: not shown heavy 2: not shown light: DIVMTQSPLSLPVTPGEPASISCQASESLVHSNRNTYLHWYLQKPGQSPQLLIYKVSNRFSGVPDRFSGSGSGTDFTLKISRVEAEDVGVYYCSQNTHVPPTFGQGTKVEIERTVAAPSVFIFPPSDEQLKSGTASVVCLLNNFYPREAKVQWKVDNALQSGNSQESVTEQDSKDSTYSLSSTLTLSKADYEKHKVYACEVTHQGLSSPVTKSFNRGEC |
| – | – | – | 45.1 % of GpH7-A5/GpH7-B3/GpL16-k0 (=100) | 31.7 % of GpH7-A5/GpH7-B3/GpL16-k0 (=100) | GpH7-A5/GpH7-B3 variant P329_20W/GpL16-k0 (He Ab) (antibody, human IgG1, kappa, Heterodimerized antibody with the alteration in one H chain only) heavy 1: not shown heavy 2: not shown light: DIVMTQSPLSLPVTPGEPASISCQASESLVHSNRNTYLHWYLQKPGQSPQLLIYKVSNRFSGVPDRFSGSGSGTDFTLKISRVEAEDVGVYYCSQNTHVPPTFGQGTKVEIERTVAAPSVFIFPPSDEQLKSGTASVVCLLNNFYPREAKVQWKVDNALQSGNSQESVTEQDSKDSTYSLSSTLTLSKADYEKHKVYACEVTHQGLSSPVTKSFNRGEC |
| – | – | – | 110 % of GpH7-A5/GpH7-B3/GpL16-k0 (=100) | 77.3 % of GpH7-A5/GpH7-B3/GpL16-k0 (=100) | GpH7-A5/GpH7-B3 variant P331_04F/GpL16-k0 (He Ab) (antibody, human IgG1, kappa, Heterodimerized antibody with the alteration in one H chain only) heavy 1: not shown heavy 2: not shown light: DIVMTQSPLSLPVTPGEPASISCQASESLVHSNRNTYLHWYLQKPGQSPQLLIYKVSNRFSGVPDRFSGSGSGTDFTLKISRVEAEDVGVYYCSQNTHVPPTFGQGTKVEIERTVAAPSVFIFPPSDEQLKSGTASVVCLLNNFYPREAKVQWKVDNALQSGNSQESVTEQDSKDSTYSLSSTLTLSKADYEKHKVYACEVTHQGLSSPVTKSFNRGEC |
| – | – | – | 172 % of GpH7-A5/GpH7-B3/GpL16-k0 (=100) | 53.4 % of GpH7-A5/GpH7-B3/GpL16-k0 (=100) | GpH7-A5/GpH7-B3 variant L328_10E/GpL16-k0 (He Ab) (antibody, human IgG1, kappa, Heterodimerized antibody with the alteration in one H chain only) heavy 1: not shown heavy 2: not shown light: DIVMTQSPLSLPVTPGEPASISCQASESLVHSNRNTYLHWYLQKPGQSPQLLIYKVSNRFSGVPDRFSGSGSGTDFTLKISRVEAEDVGVYYCSQNTHVPPTFGQGTKVEIERTVAAPSVFIFPPSDEQLKSGTASVVCLLNNFYPREAKVQWKVDNALQSGNSQESVTEQDSKDSTYSLSSTLTLSKADYEKHKVYACEVTHQGLSSPVTKSFNRGEC |
| 76.4 % (control = 100) | 147 % (control = 100) | 0.52 | – | – | GpH7-A5/GpH7-B3 variant L235_20W/GpL16-k0 (antibody, human IgG1, kappa, IgG1, anti-glypican-3; also called He Ab) heavy 1: not shown heavy 2: not shown light: DIVMTQSPLSLPVTPGEPASISCQASESLVHSNRNTYLHWYLQKPGQSPQLLIYKVSNRFSGVPDRFSGSGSGTDFTLKISRVEAEDVGVYYCSQNTHVPPTFGQGTKVEIERTVAAPSVFIFPPSDEQLKSGTASVVCLLNNFYPREAKVQWKVDNALQSGNSQESVTEQDSKDSTYSLSSTLTLSKADYEKHKVYACEVTHQGLSSPVTKSFNRGEC |
| – | – | – | 193 % of GpH7-A5/GpH7-B3/GpL16-k0 (=100) | 68.3 % of GpH7-A5/GpH7-B3/GpL16-k0 (=100) | GpH7-A5/GpH7-B3 variant L328_15Y/GpL16-k0 (He Ab) (antibody, human IgG1, kappa, Heterodimerized antibody with the alteration in one H chain only) heavy 1: not shown heavy 2: not shown light: DIVMTQSPLSLPVTPGEPASISCQASESLVHSNRNTYLHWYLQKPGQSPQLLIYKVSNRFSGVPDRFSGSGSGTDFTLKISRVEAEDVGVYYCSQNTHVPPTFGQGTKVEIERTVAAPSVFIFPPSDEQLKSGTASVVCLLNNFYPREAKVQWKVDNALQSGNSQESVTEQDSKDSTYSLSSTLTLSKADYEKHKVYACEVTHQGLSSPVTKSFNRGEC |
